Assay: yeast display, Sf9 membrane polyspecificity reagent, FACS + sequencing; frameworks hold sequencing errors
Summary of the method: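 Polyreactivity labels are assigned by the sorting gate from which each nanobody was recovered. The gates were low and high (top ~1%), set on anti-HA fluorescence for expression and streptavidin fluorescence for reagent binding. Before sorting, galactose-induced (36–48 hours) yeast display cells were stained for 1 hour at 4 °C with 10% biotinylated, detergent-solubilized Sf9 membrane reagent.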

Row | Sequence | polyreactivity (PSR sort gate)
1 | QVQLVESGGGLVQAGGSLRLSCAASGSILDPYVMGWYRQSPGKEWELVAAITQSGGSTYYADSVKGRFTISRDNAKNTVYLQMNSLKPEDTAVYYCATTRPIRRTSARYNYWGQGTQVTVSS | low polyreactivity
2 | QVQLVESGGGLVQAGGSLRLSCAASGSILDTNAMGWYRQAPGKERELVARIDIDGSTNYADSVKGRFTISRDNAKNTVYLQMNSLKPEDTAVYYCNKDHSSYGASGYDYWGQGTQVTVSS | low polyreactivity
3 | QVQLVESGGGLVQAGGSLRLSCAASGSILEIYAMGWYRQAPGKEREFVASISWDVSSTYYADSVKGRFTISRDNAKNTVYLQMNSLKPEDTAVYYCATSLVWGLYDWYYDLSAAFDYWGQGTQVTVSS | low polyreactivity
4 | QVQLVESGGGLVQAGGSLRLSCAASGSILESIVMGWYRQAPGKERELVASISSSGDSSYADSVKGRFTISRDNAKNTVYLQMNSLKPEDTAVYYCAADRWYWTYALYYWGQGTQVTVSS | low polyreactivity
5 | QVQLVESGGGLVQAGGSLRLSCAASGSILESNVMGWYRQAPGKERELVASISSSGDSTYADSVKGRFTISRDNAKNTVYLQMNSLKPEDTAVYYCAADAPGADFDYWGQGTQVTVSS | low polyreactivity
6 | QVQLVESGGGLVQAGGSLRLSCAASGSILFNNAMGWYRQAPGKERELVAAIRSNGGNTYYADSVKGRFTISCDNAKNTVYLQMNSLKPEDTAVYYCAAEKTLYGGGGWTRWFHYTYGYWGQGTQVTVSS | high polyreactivity
7 | QVQLVESGGGLVQAGGSLRLSCAASGSILFSYAMGWYIQAPGKEREFVAAITFSGGRTYYADSVKGRFTISRDNAKNTVYLQMNSLKPEDTAVYYCAASYLLIYTQGYRAEYEYWGQGTQVTVSS | low polyreactivity
8 | QVQLVESGGGLVQAGGSLRLSCAASGSILFSYAMGWYRQAPGKERELVAAINRGDGNTYADSVKGRFTISRDNAKNTVYLQMNSLKPEDTAVYYCNADLFPGYVSYPEYDYWGQGTQVTVSS | low polyreactivity
9 | QVQLVESGGGLVQAGGSLRLSCAASGSILGGNAMGWYRQAPGKERELVAANTFSGGGTYYADSVKGRFTISRDNAKNTVYLQMKSLKPEDTAVYYCNADYKSTVFRYSGSRNYWGQGTQVTVSS | low polyreactivity
10 | QVQLVESGGGLVQAGGSLRLSCAASGSILGHYAMGWYRQAPGTERELVAAISWSGGSTYYADSVKGRFTISRDNAKNTVYLQMNSLKPEDTAVYYCNAAAILYTSDGSLYWYDYWGQGTQVTVSS | low polyreactivity
11 | QVQLVESGGGLVQAGGSLRLSCAASGSILGINVMGWYRQAPGKERELVAAISWRGGRTYYADSVKGRFTISRDNAKNTVYLQMNSLKPEDTAVYYCAAYFYSTSYGADRGVDYWGQGTQVTVSS | high polyreactivity
12 | QVQLVESGGGLVQAGGSLRLSCAASGSILGPYAMGWYRQAPGKERELVAANSQSGARTYYADSVKGRFTISRDNAKNTVYLQMNSLKPEDTAVYYCAAQSRKGGWSAYYYWGQGTQVTVSS | high polyreactivity
13 | QVQLVESGGGLVQAGGSLRLSCAASGSILGQNAMGWSRQAPGKEREWVAAIRSSGGSTYYADSVKGRFTISRDNAKNTVYLQMNSRNPEDTAVYYCADDYYTSADYVDYYYWGQGTQVTVSS | low polyreactivity
14 | QVQLVESGGGLVQAGGSLRLSCAASGSILGRYAMGWYRQAPGKERELVAAISYRGGSTYYADSVKGRFTISRDNAKNTVYLQMNSLKPEDTAVYYCATRDPAFYRRYDYWGQGTQVTVSS | high polyreactivity
15 | QVQLVESGGGLVQAGGSLRLSCAASGSILGVYTMGWYRQAPGKERELVARIRLSGGSTYYADSVKGRFTISRDNAKNTVYLQMNSLIPEDTAVYYCAARYSRARFTDPYYYWGQGTQVTVSS | high polyreactivity
16 | QVQLVESGGGLVQAGGSLRLSCAASGSILGYYVMGWYRQAPGKERELVAAISWSSGSTYYADSVKGRFTISRDNAKNTVYLQMNSLKPEDTAVYYCNASNVYFWFVTLEFDYWGQGTQVTVSS | low polyreactivity
17 | QVQLVESGGGLVQAGGSLRLSCAASGSILIVYAMGWYRQAPGKERELVAAITRGGRTNYADSVKGRFTISRDYAKNTVYLQMNSLKPEDPAVYYCAAYTESYGGSDYDYWGQGTQVTVSS | high polyreactivity
18 | QVQLVESGGGLVQAGGSLRLSCAASGSILKNNAMGWYRQAPGKERELVAAITYSSGSTYYADSVKGRFTISRDNAKNTVYLQMNILKPEDTAVYYCATDPEGSTGGGYEYWGQGTQVTVSS | low polyreactivity
19 | QVQLVESGGGLVQAGGSLRLSCAASGSILKSNAMGGSRQAPGKARELVAANSSSGDSTYYADSVKGRFTISRDNAKNTVYLQMHSLKPADTAVYSCAARLRGRTRTGYYWGQGTQVTVSS | high polyreactivity
20 | QVQLVESGGGLVQAGGSLRLSCAASGSILLEYAMGWYRQAPGKERELVAAISRGGTTNYADSVKGRFTISRDNAKNTVYLQMNSLKPEDTAVYYCAAGKIGRRGHQNRLDLDYWGQGTQVTVSS | low polyreactivity
21 | QVQLVESGGGLVQAGGSLRLSCAASGSILNLNAMGWYRQAPGKERELVAAIRGGGRTNYADSVKGRFTISRDNAKNTVYLQMNSLKPEDTAVYYCAARITRPLTGYDYWGQGTQVTVSS | high polyreactivity
22 | QVQLVESGGGLVQAGGSLRLSCAASGSILNSYAMGWYRQAPVKERELVARITGDGGITYYADSVKGRFTISRDNAKNTVYLQMNSLKPEDTAVYYCNAEVVALRRDTIYDYWGQGTQVTVSS | low polyreactivity

Row | Sequence | polyreactivity (PSR sort gate)
23 | QVQLVESGGGLVQAGGSLRLSCAASGSILPGNTMGWYRQAPGKERELVASISNTGGNTYYADSVKGRFTISRDNAKNTVYLQMNSLKPEDTAVYYCAARFSLWFPTVYWEGILDYWGQGTQVTVSS | low polyreactivity
24 | QVQLVESGGGLVQAGGSLRLSCAASGSILPLYAMGGYRQAPGKERELVATISNAGSTTYADSVKGRFTISRDNAKNTVYLQMNSLKPEVTAVYYCNAESEWGWVYVGYDYWGQGTQVTVSS | low polyreactivity
25 | QVQLVESGGGLVQAGGSLRLSCAASGSILPVYAMGWYRQAPGKERELVAAISVSGGSTRYADSVKGRFTISRDNAKNTVYLQMNSLKPEDTAVYYCAARYRYSYGYWGQGTQVTVSS | high polyreactivity
26 | QVQLVESGGGLVQAGGSLRLSCAASGSILPVYVMGWYRQAPGKERELVAAISSGGSTTYADSVKGRFTISRDNAKNTVYLQMNSLKPEDTAVYYCNADVVRGYSYIYRWPFRYAYDYWGQGTQVTVSS | low polyreactivity
27 | QVQLVESGGGLVQAGGSLRLSCAASGSILQPNAMGWYRQAPGKERELVASITFSAGRTYYADSVKVRFTISRDNAKNTVYLQMNCLKPEDTAVYYCKAASDYRSSDYDYWGQGTQVTVSS | low polyreactivity
28 | QVQLVESGGGLVQAGGSLRLSCAASGSILREYTMGWSRQAPGKEMELVAAITYSGDSTYYADSVKGRFTISRDNAKNTVYLHMNSLKPEDTAVYYCNKKYRSRWQGPFDYWGQGTLVTVSS | high polyreactivity
29 | QVQLVESGGGLVQAGGSLRLSCAASGSILRPNAMGWYRQAPGKERELVAAITTSGGSTYYADSVKGRFTISRDNAKNTVYLQMNSLKPEDTAVYYCAARRQRDRYGYWGQGTQVTVSS | high polyreactivity
30 | QVQLVESGGGLVQAGGSLRLSCAASGSILRRYAMGWYRQAPGKEREFVAAISYSGSRTYYADSVKGRFTISRDNAKNTVYLQMNSLKPEDTAVYFCAADSYGSRYEYWGQGTQVTVSS | high polyreactivity
31 | QVQLVESGGGLVQAGGSLRLSCAASGSILRVYAMGWYRQAPGKERELVAAISWGDGRTYYADSVKGRFTISRDNAKNTDYLQMNSLKPEDTAVYYCNADVFIQYWGVLIREYDYWGQGTQVTVSS | high polyreactivity
32 | QVQLVESGGGLVQAGGSLRLSCAASGSILRYYAMGWYRQAPGKEREFVAAISWSGTSTYYADSVKGRFTISRDNAKNTVYLQMNSLKPEDTAVYYCAARTYYVPYYYWGQGTQVTVSS | high polyreactivity
33 | QVQLVESGGGLVQAGGSLRLSCAASGSILSGYAMGWYRQAPGKERELVAAITSGGDTNYADSVKGRFTISRDNAKNTVYLQMNSLKPEDTAVYYCNRGGDFRIAYYDPMDYWGQGTQVTVSS | low polyreactivity
34 | QVQLVESGGGLVQAGGSLRLSCAASGSILSSYAMGWYRQAPGKERELVAAISWRGGPTYYADSVKGRFTISRDNAKNTVYLQMNSLKPEDTAVYHCAAEFYDHPWLYDYWGQGTQVTVSS | low polyreactivity
35 | QVQLVESGGGLVQAGGSLRLSCAASGSILSWYAMGWYRQAPGKERELVAAITGAGSTNYADSVKGRFTISRDNAKNTVYLQMNSLKPEDTAVYYCAADGSPWSWYSDGYWGQGTQVTVSS | low polyreactivity
36 | QVQLVESGGGLVQAGGSLRLSCAASGSILSWYAMGWYRQAPGKERELVAAITGSGGTTYADSVKWRFTISRDNAKNTVYLQMNSLKPEDTAVYYCAADYLGIYDYWGQGTQVTVSS | high polyreactivity
37 | QVQLVESGGGLVQAGGSLRLSCAASGSILSYNTMGWYRQAPGKEREFVAGITYSGSRTYYADSVKGRFTISRDNAKNPVYLQMNSLKPEDTAVYYCAAQYWQGDYDYWGQGTQVTVSS | high polyreactivity
38 | QVQLVESGGGLVQAGGSLRLSCAASGSILSYYAMGWYRQAPGKERELVAAITGGGSTYYADSVKGRFTISRDNAKNTVYLQMNCLKPEVTAVYYCAALWWTYGIGYGYWGQGTLVTVSS | high polyreactivity
39 | QVQLVESGGGLVQAGGSLRLSCAASGSILTDNAMRWYRQAPGKERELVAAITSGGSTYYADSVKGRFTISRDNAKNTVYLQMNSLKPEDTAVYYCNADPYTYSYGMYYWGQGTQVTVSS | low polyreactivity
40 | QVQLVESGGGLVQAGGSLRLSCAASGSILTINAMGWYRQAPGKERELVAAITGNGGSTDYADSVKGRFTISRDTAKNTVYLQMNSLKPVDTAVYYCAARLYYFGRSGVKYRDGYWGQGTQVTVSS | high polyreactivity
41 | QVQLVESGGGLVQAGGSLRLSCAASGSILTINAMGWYRQAPGKERELVARITISSGSTYYADSVKGRFTISRDNAKNTVYLQMNSLKPEDTAVYYCAVDTSYSDRYDYWGQGTQVTVSS | low polyreactivity
42 | QVQLVESGGGLVQAGGSLRLSCAASGSILTRYAMGWYRQAPGKERELVAANTYSGDSTYYADSVKGRFTISRDNAKNTVYLQMNSLKPEDTAVYYCAARKYYARYYWGQGTQVTVSS | high polyreactivity
43 | QVQLVESGGGLVQAGGSLRLSCAASGSILVQNAMGWYRQAPGKERELVAVINSGDSTNYADSVKGRFTISRDNAKNTVFLQMNSLKPEDTAVYYCAVDDVSYYYLRAYNYELSWYGSGLDYWGQGTQVTVSS | low polyreactivity

Source: the nanobody polyreactivity screen of Harvey et al. (2022)
